Results from patent US20130039916A1.

Target: "Bac-wt" human IL-23 (identical to elastikine in sequence, expressed in SF9 cells) (human) (UniProt P29460)
Experiment: BIAcore SPR, antibody immobilised on CM5 chip, IL-23 in solution

Row | Binder | Kd [nM]
1 | humanized anti-human IL-23p19 antibody 7G10 (antibody, human IgG1, kappa, V domains shown) VH: QVQLVQSGAEVKKPGASVKVSCKASGYTFTSNVMHWVRQAPGQGLEWMGYINPYNDGTKYNEKFKGRVTMTTDTSTSTAYMELRSLRSDDTAVYYCARNWDVAYWGQGTLVTVSS VL: DIQMTQSPSSLSASVGDRVTITCRASQSISDYLHWYQQKPGKAPKLLIYYASQSISGVPSRFSGSGSGTDFTLTISSLQPEDFATYYCQNGHSFPFTFGQGTKVEIKR | 10
2 | humanized anti-human IL-23p19 antibody 6H12 (antibody, human IgG1, kappa, V domains shown) VH: QVQLVQSGAEVKKPGASVKVSCKASGYTFNRYLIHWVRQAPGQGLEWMGYINPNNAGTNYNEKFKGRVTMTTDTSTSTAYMELRSLRSDDTAVYYCARNWDQAYWGQGTLVTVSS VL: DIQMTQSPSSLSASVGDRVTITCRASQSISDYLHWYQQKPGKAPKLLIYYTSQSISGVPSRFSGSGSGTDFTLTISSLQPEDFATYYCQNGHSFPFTFGQGTKVEIKR | 5.1
